Measured values as given in the supplement of paper PMC10126150.
± gives the standard deviation of the averaged measurements.

System: ATP
Assay: switch fluorescence ratio, 500 uM ATP over buffer (Cy3 cluster intensity, sum of 5 cycles each) (fold (ratio)); higher = stronger signal-on switching upon ATP binding; sequences stand for … in TCGTCGGCAGCGTCAGATGTGTATAAGAGACAGTTTTTTTTTTTTTTTTTTTTTTTTT…TC
Conditions: aptamer strand: ATP DNA aptamer (quencher-CACCTGGGGGAGTATTGCGGAGGAAGG + anchor), 100 nM annealed; ATP concentration: 500 uM
Method in brief: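 Between each of five buffer/ATP cycles, the flow-cell was stripped with NaOH and re-annealed. Each cycle imaged Cy3-labelled switching-strand clusters, annealed to 100 nM quencher-labelled ATP aptamer on a modified Illumina MiSeq flow-cell, first in selection buffer and then after 15 min with 500 uM ATP at 22 °C. The fluorescence ratio is summed target-cycle over summed buffer-cycle Cy3 intensity per cluster, averaged per switch-domain sequence, with clusters outside 100-1000 RFU excluded.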
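Further: ATP exposure 15 min at 22 °C before imaging.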

| Sequence | switch fluorescence ratio |
| --- | --- |
| GGTGGTGAGC | 1 ± 0.026 |
| GGTGGTTGTA | 0.919 ± 0.043 |
| GGTGTAACAG | 0.991 ± 0.012 |
| GGTGTACCGG | 1.004 ± 0.0092 |
| GGTGTAGGAC | 1.03 ± 0.012 |
| GGTGTCTGCG | 1.01 ± 0.013 |
| GGTGTGATTT | 1 ± 0.025 |
| GGTGTGCATC | 1 ± 0.018 |
| GGTGTGGCCG | 1.02 ± 0.062 |
| GGTGTGGCGC | 0.955 ± 0.0063 |
| GGTGTGGGAT | 1.01 ± 0.057 |
| GGTGTGGTCA | 0.977 ± 0.035 |
| GGTGTGTATC | 1.01 ± 0.02 |
| GGTGTGTGGT | 1.002 ± 0.0029 |
| GGTGTTACGT | 0.971 ± 0.017 |
| GGTGTTAGGT | 0.9925 ± 0.0029 |
| GGTGTTCAGC | 0.981 ± 0.04 |
| GGTGTTCAGG | 1.042 ± 0.0083 |
| GGTGTTGGGG | 1.0211 ± 3.7e-05 |
| GGTGTTGGTT | 1.008 ± 0.0093 |
| GGTGTTGTG | 0.974 ± 0.081 |
| GGTGTTGTTG | 1.017 ± 0.0023 |

| Sequence | switch fluorescence ratio |
| --- | --- |
| GGTTAAACAA | 1.01 ± 0.016 |
| GGTTAACTTA | 0.979 ± 0.042 |
| GGTTAAGCTT | 1.007 ± 0.0078 |
| GGTTAAGGAT | 0.9884 ± 0.0023 |
| GGTTAAGGCC | 1.033 ± 0.007 |
| GGTTAAGGGA | 0.982 ± 0.024 |
| GGTTAAGGGG | 1.05 ± 0.13 |
| GGTTAAGGTC | 1 ± 0.029 |
| GGTTAAGTTT | 0.969 ± 0.025 |
| GGTTAATGGA | 0.9833 ± 0.0035 |
| GGTTAATGGC | 1.05 ± 0.039 |
| GGTTACAGTT | 1.036 ± 0.01 |
| GGTTACATTG | 0.993 ± 0.019 |
| GGTTACGGC | 1.07 ± 0.17 |
| GGTTAGCGG | 0.9599 ± 0.0026 |
| GGTTAGGGAC | 1.04 ± 0.04 |
| GGTTAGGGAG | 1.002 ± 0.0089 |
| GGTTAGGGGG | 1 ± 0.052 |
| GGTTAGTACT | 0.999 ± 0.017 |
| GGTTATAGGG | 0.9802 ± 0.008 |
| GGTTATAGTT | 1.01 ± 0.011 |
| GGTTATCGGC | 1.01 ± 0.017 |

| Sequence | switch fluorescence ratio |
| --- | --- |
| GGTTATGAGT | 0.99 ± 0.017 |
| GGTTATTGGA | 0.995 ± 0.058 |
| GGTTATTTTT | 1.01 ± 0.036 |
| GGTTCAAAAC | 0.997 ± 0.059 |
| GGTTCAACGG | 0.982 ± 0.014 |
| GGTTCAATCT | 0.9815 ± 0.0012 |
| GGTTCACGGG | 0.983 ± 0.015 |
| GGTTCACTTT | 1.02 ± 0.033 |
| GGTTCAGGGG | 2.26 ± 1.8 |
| GGTTCCTATG | 0.9909 ± 0.0079 |
| GGTTCTGAGC | 0.986 ± 0.02 |
| GGTTCTGGGT | 1 ± 0.02 |
| GGTTCTGTCC | 1.03 ± 0.021 |
| GGTTCTTGAA | 0.994 ± 0.019 |
| GGTTCTTGG | 0.995 ± 0.062 |
| GGTTCTTTTC | 0.996 ± 0.037 |
| GGTTGAAATG | 0.939 ± 0.072 |
| GGTTGAGCGT | 1.01 ± 0.047 |
| GGTTGAGCTC | 0.973 ± 0.063 |
| GGTTGAGGAC | 1.01 ± 0.057 |
| GGTTGAGGG | 0.997 ± 0.001 |
| GGTTGAGGGA | 0.979 ± 0.016 |

| Sequence | switch fluorescence ratio |
| --- | --- |
| GGTTGATAGA | 1.01 ± 0.028 |
| GGTTGATGGG | 0.999 ± 0.038 |
| GGTTGCATCA | 0.994 ± 0.032 |
| GGTTGCATCG | 0.986 ± 0.012 |
| GGTTGCGGGT | 0.9874 ± 0.0056 |
| GGTTGCGTCG | 1.01 ± 0.014 |
| GGTTGGACCA | 0.9602 ± 0.0032 |
| GGTTGGATTA | 0.9787 ± 0.00083 |
| GGTTGGCCGC | 1.02 ± 0.032 |
| GGTTGGGGGG | 1 ± 0.036 |
| GGTTGGGTTA | 1.033 ± 0.0083 |
| GGTTGGTGCA | 1.02 ± 0.013 |
| GGTTGTAGGC | 1.02 ± 0.017 |
| GGTTGTGAAG | 0.994 ± 0.043 |
| GGTTGTGCGA | 0.98322 ± 0.00037 |
| GGTTGTTAGG | 0.9796 ± 0.0055 |
| GGTTTAAAAT | 0.9581 ± 0.0094 |
| GGTTTAAGTG | 0.979 ± 0.052 |
| GGTTTAATCG | 1.01 ± 0.046 |
